Literature values in PMC3079273.
Where two headings read alike, the source gives them in different places. Blank lines part the entries; values can stand above or below the substance they belong to.

Assays:
Glu1261 = Glu1261 (UniProt position 1261, SKAVGEPPLFL); assay: kinetics; settings: free oxidized enzyme reacting with free substrate (xanthine)
[1] = target: nitrate reductase (Arabidopsis thaliana) (UniProt P11035)
[2] = target: nitrate reductase (Arabidopsis thaliana) (UniProt P11035); remark: listed apart in the source

nitrate reductase (Arabidopsis thaliana), sequence (P11035 whole entry): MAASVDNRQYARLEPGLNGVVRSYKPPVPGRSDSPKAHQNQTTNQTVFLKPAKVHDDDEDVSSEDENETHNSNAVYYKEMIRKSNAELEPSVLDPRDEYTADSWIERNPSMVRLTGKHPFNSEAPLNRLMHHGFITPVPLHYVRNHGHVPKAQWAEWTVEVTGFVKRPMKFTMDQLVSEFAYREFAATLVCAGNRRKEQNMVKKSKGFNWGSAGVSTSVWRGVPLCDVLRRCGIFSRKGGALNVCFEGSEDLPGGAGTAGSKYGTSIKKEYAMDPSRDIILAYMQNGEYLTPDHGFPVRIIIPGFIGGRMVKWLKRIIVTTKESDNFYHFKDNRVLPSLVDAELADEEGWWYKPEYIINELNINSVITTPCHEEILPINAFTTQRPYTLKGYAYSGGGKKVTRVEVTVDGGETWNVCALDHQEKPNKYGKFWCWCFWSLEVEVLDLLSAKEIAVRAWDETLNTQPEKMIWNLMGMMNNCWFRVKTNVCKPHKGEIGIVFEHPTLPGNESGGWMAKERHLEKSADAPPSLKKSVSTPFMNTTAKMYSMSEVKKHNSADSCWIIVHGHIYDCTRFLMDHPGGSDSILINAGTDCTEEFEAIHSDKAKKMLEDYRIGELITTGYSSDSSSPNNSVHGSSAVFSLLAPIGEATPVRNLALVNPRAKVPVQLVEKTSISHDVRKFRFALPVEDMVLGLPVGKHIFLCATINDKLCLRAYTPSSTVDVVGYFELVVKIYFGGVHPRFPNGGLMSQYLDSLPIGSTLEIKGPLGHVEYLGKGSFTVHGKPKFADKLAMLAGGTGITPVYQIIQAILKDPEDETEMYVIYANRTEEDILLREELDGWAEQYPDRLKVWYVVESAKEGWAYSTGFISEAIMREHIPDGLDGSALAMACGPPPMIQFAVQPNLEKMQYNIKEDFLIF
14-3-3 omega, sequence (Q01525 whole entry): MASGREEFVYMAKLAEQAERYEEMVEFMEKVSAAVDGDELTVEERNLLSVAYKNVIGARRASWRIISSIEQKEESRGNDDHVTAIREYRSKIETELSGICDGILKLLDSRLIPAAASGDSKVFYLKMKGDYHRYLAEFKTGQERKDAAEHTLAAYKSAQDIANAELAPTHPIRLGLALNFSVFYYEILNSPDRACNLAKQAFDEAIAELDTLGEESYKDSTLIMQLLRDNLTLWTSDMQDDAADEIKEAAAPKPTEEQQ
14-3-3 lambda, sequence (P48349 whole entry): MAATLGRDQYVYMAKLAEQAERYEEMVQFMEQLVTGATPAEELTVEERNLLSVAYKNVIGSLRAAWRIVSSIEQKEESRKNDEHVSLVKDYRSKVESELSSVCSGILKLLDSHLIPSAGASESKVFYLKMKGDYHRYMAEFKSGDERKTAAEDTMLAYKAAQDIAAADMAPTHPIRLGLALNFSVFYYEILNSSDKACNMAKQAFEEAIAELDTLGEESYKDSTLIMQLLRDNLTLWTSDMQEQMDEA

Substance: Xanthine oxidoreductase (xanthine oxidase / xanthine dehydrogenase) (Bos taurus)
pKa (Glu1261): 6.6

Ki [1]: 80 nM
Substance: 14-3-3 lambda (from UniProt P48349)

Ki [2]: 60 nM
Substance: 14-3-3 omega (from UniProt Q01525)
